Measured values as given in PMC2879519.

How the values were obtained:
Assay in all cases: fluorescence quenching titration
[1] = biological target: SMC2 hinge long (mSMC2h of mSMC2h4h-l);SMC4 hinge long (mSMC4h of mSMC2h4h-l) (mouse;mouse) (UniProt Q8CG48+Q8CG47)
[2] = biological target: SMC2 hinge long (mSMC2h of mSMC2h4h-l);SMC4 hinge long (mSMC4h of mSMC2h4h-l) (mouse;mouse, UniProt Q8CG48;Q8CG47 492-680;581-766, |)
[3] = biological target: SMC2 hinge long K566E;SMC4 hinge long (mSMC4h of mSMC2h4h-l) (mouse;mouse, UniProt Q8CG48;Q8CG47 492-680;581-766, K566E|)
[4] = biological target: SMC2 hinge long K566E;SMC4 hinge long K657E (mouse;mouse, UniProt Q8CG48;Q8CG47 492-680;581-766, K566E|K657E)
[5] = biological target: SMC2 hinge long K613E;SMC4 hinge long K698E (mouse;mouse, UniProt Q8CG48;Q8CG47 492-680;581-766, K613E|K698E)
Sequence of SMC2 hinge long K613E;SMC4 hinge long K698E (Q8CG48 492-680 K613E, chain 1 of 2): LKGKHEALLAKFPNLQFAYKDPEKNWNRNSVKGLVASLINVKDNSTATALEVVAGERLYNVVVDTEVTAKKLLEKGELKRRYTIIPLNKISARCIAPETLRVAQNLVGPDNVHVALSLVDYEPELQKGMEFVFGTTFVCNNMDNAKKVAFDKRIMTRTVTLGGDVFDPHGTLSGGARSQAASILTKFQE
Sequence of SMC2 hinge long K613E;SMC4 hinge long K698E (Q8CG47 581-766 K698E, chain 2 of 2): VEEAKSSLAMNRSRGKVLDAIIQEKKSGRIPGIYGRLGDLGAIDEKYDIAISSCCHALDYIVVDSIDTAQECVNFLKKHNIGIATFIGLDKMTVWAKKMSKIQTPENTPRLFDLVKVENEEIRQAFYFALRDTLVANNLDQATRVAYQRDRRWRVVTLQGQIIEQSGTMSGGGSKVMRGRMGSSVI

Sequence of SMC2 hinge long (mSMC2h of mSMC2h4h-l);SMC4 hinge long (mSMC4h of mSMC2h4h-l) (mouse;mouse) (Q8CG48 492-680, chain 1 of 2): as the sequence (Q8CG48 492-680 K613E, chain 1 of 2) above, with E122K counted along it
Sequence of SMC2 hinge long (mSMC2h of mSMC2h4h-l);SMC4 hinge long (mSMC4h of mSMC2h4h-l) (mouse;mouse) (Q8CG47 581-766, chain 2 of 2): as the sequence (Q8CG47 581-766 K698E, chain 2 of 2) above, with E118K counted along it
Sequence of SMC2 hinge long (mSMC2h of mSMC2h4h-l);SMC4 hinge long (mSMC4h of mSMC2h4h-l) (Q8CG48 492-680, chain 1 of 2): as the sequence (Q8CG48 492-680 K613E, chain 1 of 2) above, with E122K counted along it
Sequence of SMC2 hinge long (mSMC2h of mSMC2h4h-l);SMC4 hinge long (mSMC4h of mSMC2h4h-l) (Q8CG47 581-766, chain 2 of 2): as the sequence (Q8CG47 581-766 K698E, chain 2 of 2) above, with E118K counted along it
Sequence of SMC2 hinge long K566E;SMC4 hinge long (mSMC4h of mSMC2h4h-l) (Q8CG48 492-680 K566E, chain 1 of 2): as the sequence (Q8CG48 492-680 K613E, chain 1 of 2) above, with K75E, E122K counted along it
Sequence of SMC2 hinge long K566E;SMC4 hinge long (mSMC4h of mSMC2h4h-l) (Q8CG47 581-766, chain 2 of 2): as the sequence (Q8CG47 581-766 K698E, chain 2 of 2) above, with E118K counted along it
Sequence of SMC2 hinge long K566E;SMC4 hinge long K657E (Q8CG48 492-680 K566E, chain 1 of 2): as the sequence (Q8CG48 492-680 K613E, chain 1 of 2) above, with K75E, E122K counted along it
Sequence of SMC2 hinge long K566E;SMC4 hinge long K657E (Q8CG47 581-766 K657E, chain 2 of 2): as the sequence (Q8CG47 581-766 K698E, chain 2 of 2) above, with K77E, E118K counted along it

Molecule	Kd [1] [nM]	Kd [2] [nM]	other results
CATCCTGTCCGCTGC / TTTTTTTTTTTTTTTGCAGCGGACAGGATG [30-mer ds-ssDNA-5']	1770		
CATCCTGTCCGCTGC / GCAGCGGACAGGATGTTTTTTTTTTTTTTT [30-mer ds-ssDNA-3']	1550		
CATCCTGTCCGCTGC / CCGGAGAGCATCTCG / GCAGCGGACAGGATGTTTTTTTTTTTTTTTCGAGATGCTCTCCGG [45-mer ds-ss-dsDNA]	660		
TTTTTTTTTTTTTTTTTTTTTTTTTTTTTT (ssDNA) [30-mer ssDNA]		450 ± 40	Kd [3]: 1800 ± 80 nM; Kd [4]: 3.26 ± 0.58 µM; Kd [5]: 2950 ± 300 nM
TTTTTTTTTTTTTTT (ssDNA) [15-mer ssDNA]		3210 ± 140	
